Four substances from PMC4051761 can be followed below.

Assay [1] deals with MA-CA.FP: uncleaved MA-CA Gag derivative carrying eCFP or eYFP, in HIV^eCFP/eYFP particles of the MA-CA cleavage site variant (HIV-1 NL4-3). The experiment in a line: FRET or BRET; stopped-flow; dual-labeled particles mixed with 0.05% TX-100 in PBS at 25°C, excitation 436 nm, long pass filter 515 nm; five to six traces averaged; single or double exponential fits of the FRET decay.

Assay [2] concerns the target MA.FP: HIV-1 matrix protein (MA) carrying eCFP or eYFP, in mature HIV^eCFP/eYFP particles (HIV-1 NL4-3). The description is as above.
The target of assay [3] is MA-SP1.FP: uncleaved MA-CA-SP1 Gag derivative carrying eCFP or eYFP, in HIV^eCFP/eYFP particles of the MA-SP1 cleavage site variant (HIV-1 NL4-3). Described as above.
Assay [4] shares this target. Description: FRET or BRET; cuvette-based; dual-labeled particles in PBS at 25°C, 0.05% TX-100 added at t = 0 to strip the lipid envelope; emission at 528 nm (excitation 433 nm) followed at 1 s resolution, or spectra after 15 min; normalized to the signal before detergent. In general terms: In BRET a luciferase serves as donor, and the signal depends on an acceptor being close.

Assay [5] addresses Gag.FP: unprocessed HIV-1 Gag polyprotein carrying eCFP or eYFP between MA and CA, in immature HIV^eCFP/eYFP particles (HIV-1 NL4-3). The experiment in a line: FRET or BRET; stopped-flow; dual-labeled particles mixed with 0.05% TX-100 in PBS at 25°C, excitation 436 nm, long pass filter 515 nm; five to six traces averaged; single or double exponential fits of the FRET decay.

Regarding “MA-CA.FP: uncleaved MA-CA Gag derivative carrying eCFP or eYFP, in HIV^eCFP/eYFP particles of the MA-CA cleavage site variant (domain or fragment)”, in assay [1], the k1, rate constant of FRET decay (fast phase, double exponential) was 0.127 s⁻¹ and the k2, rate constant of FRET decay (slow phase, double exponential) turned out to be 0.0082 s⁻¹.

“MA.FP: HIV-1 matrix protein (MA) carrying eCFP or eYFP, in mature HIV^eCFP/eYFP particles (natural protein)”: the k1, rate constant of FRET decay (single exponential) in assay [2] came to 0.099 s⁻¹. In assay [3], “MA-SP1.FP: uncleaved MA-CA-SP1 Gag derivative carrying eCFP or eYFP, in HIV^eCFP/eYFP particles of the MA-SP1 cleavage site variant (domain or fragment)” yielded a k1, rate constant of FRET decay (fast phase, double exponential) of 0.129 s⁻¹ and a k2, rate constant of FRET decay (slow phase, double exponential) of 0.0078 s⁻¹. The plateau of the FRET signal after detergent, % of the initial value in assay [4] worked out at 75%.

In assay [5], “Gag.FP: unprocessed HIV-1 Gag polyprotein carrying eCFP or eYFP between MA and CA, in immature HIV^eCFP/eYFP particles (natural protein)” yielded a k1, rate constant of FRET decay (single exponential) of 0.018 s⁻¹.
